Results on two molecules are retold here after patent US20190330271A1 (HANGZHOU WISDOM PANACEA BIOLOGICS, published 2019).

The assay deals with T1, Aβ42 oligomers (UniProt P05067 672-713).
T1 construct: domain: Aβ42; Oligomeric state
Nature of the assay: ELISA on coated Aβ42 oligomers, His-tagged polypeptide at 1 µg per well. Background: An ELISA detects its analyte on a solid surface through an enzyme-linked reagent.

T1 sequence (P05067 672-713 limits assumed): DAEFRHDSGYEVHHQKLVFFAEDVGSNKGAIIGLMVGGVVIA
Protocol: 100 μL of monomers, oligomers or fibers of Aβ42, PrP, amylin, insulin or lysozyme were respectively coated onto a 96-well ELISA microplate at 1 μg/well, BSA was used as a negative control. The plate were then placed at 37° C. for 2 h, blocked with 200 μL/well of 3% BSA at 37° C. for 2 h, and washed 3 times with PBS. 100 μL of histidine-tagged ZR polypeptide solution was added, and the plate was incubated at room temperature for 1 h, and then washed 3 times with PBS containing 0.1% Tween-20. 100 μL of HRP-linked antibody 9E10 which can recognize the histidine tag was added to each well, and the plate was incubated at room temperature for 1 h, and then washed 3 times with PBS containing 0.1% Tween-20. 100 μL of TMB was added to each well, and the plate was placed at 37° C. for 20 min. Then, 50 μL of 1 mmol/L sulfuric acid was added to each well to terminate the reaction, and OD450 values were measured using a microplate reader. The above procedure was repeated for 3 times under the same condition.

B1: SEQ ID NO: 8, histidine-tagged (peptide)
peptide: SAFNNKR
notes: also called ZR with position 2 substituted with alanine; not shown: histidine tag
The molecule B1 showed an OD450 of 0.48.

B2: SEQ ID NO: 10, histidine-tagged (peptide)
peptide: SFFANKR
notes: also called ZR with position 4 substituted with alanine; not shown: histidine tag
On to B2, for which the OD450 stood at 0.57.
